Source: article PMC2587436

Legend:
Assay in all cases: SPR
[1] = target: GST-APPBP1-UBA3 (Cys216Ala) (human) (UniProt Q13564)
[2] = target: GST-APPBP1-UBA3Arg190Ala (Cys216Ala) (human) (UniProt Q13564)
[3] = target: GST-APPBP1-UBA3Arg190Gln (Cys216Ala) (human) (UniProt Q13564)

Row | Kd [1] [µM] | Kd [2] [µM] | Kd [3] [µM] | Substance
1 | > 10 | 1.66 | 1.02 | NEDD8Ala72Arg (from UniProt Q15843 1-76) (natural protein)
2 | 8.75 | > 10 | > 10 | NEDD8Ala72Gln (from UniProt Q15843 1-76) (natural protein)
3 | 0.333 | 5.5 | 3.46 | NEDD8 (from UniProt Q15843 1-76) (natural protein)
4 | > 10 | 2.97 | 0.886 | NEDD8Ala72Lys (from UniProt Q15843 1-76) (natural protein)
